In the DeepSol protein solubility set:

Assay: soluble on expression in E. coli; label from the status in PepcDB or PDB records

Sequence	soluble on expression in E. coli
MGSDKIHHHHHHMKIIHVIASIDPKHGGLQAVAMRLAAAQAGLGLDVNIVSYGDAAIEAQVKEIGRSIPHFENIHWHLLPPAGRLETLFCFRGRRMLKALLKDASFMHIHGVWEPFLLYASKLARAAGVPYCICPAGMLDHWSLGQRSWKKKIALMLCYRRMLNEAAFLHLLNVDEMAAVETLNFQARNLIIPNGVFAEEFDPLPARGHFRQKIALAHGRRYILFLSRLHIKKGIDILASAFAAICETYVDVDLVVAGPPGGAEGHFMHLVKKLNIRHRVFMVGAIYGKAKLEAMVDADCFCLPSRQEGFSMAITEALACGTPVVITDQCHFPEVGSADAGLIVSVDAAEVAKALASMLGNPARARTMGENGRRLVLEKFTWPAIAHATLEGYRLSALEAAAS	not soluble
MYQSYPQQQQPGYQPQQPSHPIVGAGAAPTMAPQNPYGQQPFQPQFQQGQYQQPSGQQYQSMQQQFQSPQQQAPTQPTHPDRESYQTALPANVTPGWNDPPSMLPSAGTTPNRLSNMRRRPVDPSISGNVGYGTSSQTSNPYGASASPYGAPQQNPQQYQEQPQSYQTYQQPQQQQPQYGQQQNPQQFGQQYPGAGAPHQQQHYGM	not soluble
MIDKQSGIPIYIQIQSEIKKKMEDGVWKVGTSIPAERQLAEMFHVSRMTVRQAIQGLVDDNILQRRVGAGTFIAEKKLTERLEAVTSFTNLMLQEGKVPSTRIVSYGIRPASTQEQEALQLPENSNVMKIERIRYGDRVPILYEVAAIPEKIASLLTKEDIMDSLYKAIELKLGQPIGEAEQIMEASLVSEKIAPYLDVKLGSPVMKLRQITTLEDGRPFEFTRSQYVGSRFQFVARIKQ	not soluble
MGSDKIHHHHHHMSFFPGPDPLAGDKPACDAIEHLIIPRTSDIGGLQVRRALPTAKRRLVGPFIFFDRMGPALLRAGQAIDVRPHPHIGLSTVTYLFDGEIKHRDSLGTEMVIRPGDVNLMTAGRGIVHSERSPENQRGHERSLSGLQTWLALPDAMEEIDPVFAHTEERMLPHLADGGVRARVVIGQFEGAASPVSTFTDTIYVDLMIEPGKSAPFAANWEERALYILSGEAIIAGDHFDNNQLLVFRPGDEITITAGPAGCHVMLFGGAALGSPRHIWWNFVSSSKERIDKAKEEWRTGRFDIVPGDEEEFIPLPAS	not soluble
MTATAQQLEYLKNSIKSIQDYPKPGILFRDVTSLLEDPKAYALSIDLLVERYKNAGITKVVGTEARGFLFGAPVALGLGVGFVPVRKPGKLPRETISETYDLEYGTDQLEIHVDAIKPGDKVLVVDDLLATGGTIEATVKLIRRLGGEVADAAFIINLFDLGGEQRLEKQGITSYSLVPFPGH	soluble
MTPKEIFESNRPGSKDVAWCPGCGNFGIRNILIEAFSELNLKPTEVVIISGIGQAAKMPHYINVNGYHTLHGRAIPIATAVKAANPSLTVIAEGGDGDMYAEGGNHLLHAIRRNPDITVLIHNNQIYGLTKGQASPTTPIGMKTPTQPWGVFEEPLNPIALAIALGASFVARTFVGYFKESVEIIKQAIKHKGLAIVDIFQPCVSFNKLNTYSWYKEHTYWMKDHDPHDRIEAFKRAIETDPLPLGIFYINEKPTFEEQVPAYKRDKRPLWMRDPKIELVKKFFESKR	not soluble
MLTIERHEQIVKLVQEKEVVTIHDLVEYTNASESTIRRDLTELEKQKKLKRIHGGASVLKKRREEPTMAEKTVKNNHEKKKIAELAASFVEDGDCLFLDAGTTTYELIPFIKTKKIVVVTNGLDSISALLEAGVETYVIGGTVKQGTRAFVGRHAIQSLQTFRFDKAFLGINGVHLEDGFTTPDPQEAYVKETALSLSREAFMLVDHSKFGETTFATVAPIHAATIVTSSQVEQQVIQAYETQTAVKVVTLLEHHHHHH	soluble
MDMSKASQEQFSMFMNLLCITVKDMPITEYYTSYILWEEVEFLEGVKDLLDPTSAFEDRRSSLYHHLGHNFASNCSLKDDNNVRDAHVVVEDHTKFDNYMYDQMTRKEWTSLHL	soluble
MGSDKIHHHHHHDTEKKVSEEGFVFTTVKENPITSVKNQNRAGTCWCYSSYSFLESELLRMGKGEYDLSEMFTVYNTYLDRADAAVRTHGDVSFSQGGSFYDALYGMETFGLVPEEEMRPGMMYADTLSNHTELSALTDAMVAAIAKGKLRKLQSDENNAMLWKKAVAAVHQIYLGVPPEKFTYKGKEYTPKSFFESTGLKASDYVSLTSYTHHPFYTQFPLEIQDNWRHGMSYNLPLDEFMEVFDNAINTGYTIAWGSDVSESGFTRDGVAVMPDDEKVQELSGSDMAHWLKLKPEEKKLNTKPQPQKWCTQAERQLAYDNYETTDDHGMQIYGIAKDQEGNEYYMVKNSWGTNSKYNGIWYASKAFVRYKTMNIVVHKDALPKAIKAKLGIK	not soluble
FPTPKPVPAPQQAAQQQAVTASAEAALAPATPITVTTDTVQAVIDEKSGDLRRLTLLKYKATGDENKPFILFGDGKEYTYVAQSELLDAQGNNILKGIGFSAPKKQYSLEGDKVEVRLSAPETRGLKIDKVYTFTKGSYLVNVRFDIANGSGQTANLSADYRIVRDHSEPEGQGYFTHSYVGPVVYTPEGNFQKVSFSDLDDDAKSGKSEAEYIRKTPTGWLGMIEHHFMSTWILQPKGRQSVCAAGECNIDIKRRNDKLYSTSVSVPLAAIQNGAKAEASINLYAGPQTTSVIANIADNLQLAKDYGKVHWFASPLFWLLNQLHNIIGN	not soluble
MSGEDDYNSDDEANKNLSKKELQELKRKQQKSKKKKESKKRAKATKQAEIETREEPKKEEENGDDLDVEIDYIGETIEIEPDNPHAQYFSAIFDAFKISTDSEDGFSYGHHVSKGEKKDDLGKVGQAERIIQEEMEERAKENTEEKLSRRKLRISLQPSIAKLKETTLRADVVEWADVTSRDPYLLVAMKSYRNSVPVPRHWNAKRKYLAGKRGFERPPFELPDFIKRTGIQDMREALLEKEESQSLKSKMRERARPKLGKIDIDYQKLHDAFFKWQTKPAMTKMGELYYEGKEMEAMMRDKKPGEMSDELRIALGMPIGSNAFKFPPPWLIAMQRYGPPPSFPHIKIPGLNAPIPEGCAFGYHAGGWGKPPVDEYGHPLYGDVFGLAAPAFEPEDESQIERRYWGEIGSDESSDEEESEEEEHADDDDADVEGGFQTPAPVEGMITPSGMTTGITGIETPDTIELRKGKESSVLGTDTPAAAYHIIPEKKNERIGGQMMASSHTYDLSKKHAVRDDGVQISLDPESIDMDEQGLAARYEEQLRKQKHRDDDDEDREDLTDMVAEHAAKQNRKRKVQDDKKNKTSSSSSSGSSGKKHKDFKF	not soluble
GMSLAPWRGAIAHALHRNRSLVYARYLQLATVQPNGRPANRTLVFRGFLEDTNQLRFITDTRSAKADQIQQQPWAEICWYFPNTREQFRMAGDLTLISSDDSHQDLQPARIAMWQELSDAARLQFGWPYPGKPRIKESGAFEPSPPDPIEPVPNFCLLLLDPVQVDHLELRGEPQNRWLYHRNDQQEWSSEAINP	soluble
MNACVSVVCYKSKTLSNGENPLMLQVSKGGKRKYQSLGISINPKYWDFTRNKPKPNCPNKEYIQKIILDKQRELQQRMLELNSEQKEYTTTTLLNNENTKFELKTVSMFYKELIEQYTREDKCGNRLIYKGSFNSLKVFTNGKLDIPFNEIDIAWLNKYEKWLRSKGNRETTISLLFRTLRSAYNKAIKAKCARKSDYPFDDYKINKFDTTTQKRAIAKTDVLKFTTEVQPIGKQQYMELSKDIFVFSYLCGGINFTDIANLTNENIQNGRLHYIRQKTKKPIKIGIPQEAMQIIEKYSKESKG	not soluble
MVRDMRFCYRCGISEEEGGPLINGLCQVCFRKENPVLLLPSEINTELCQNCGSYKKRGVWVDPKNYELEALIFEVAENALLEALEDNLKVKDFEVVNWEELDEISEIPVGKAFVAYRVVDYHIEYFPAIVIYEVRSKARIHELQVEPHDERTTVTVYVRQTVCPRCQKFLAGYYEAILQVRVEGREFTKEEREEITKLVQEKVDEIMKRDRMGFIQDTIEKEEGIDFYMGSTSAARKLANAIREKYGGTISEAYELVGMDRQTSREVYRTSVTVRLPKFRKGDVVEDRYGRVYEVEEVNGKGMRLKNLETWKSEHYDWKTIKRERVDLANYEEKKAMLVSKTPSEVQFMDMETYETFEVKKPTDELKEGEVYTVVRVKGRMYVKEEVKELEHHHHHH	soluble
MDLQSTPLKGVVRSSEDGLFYLFPIQSLSTLQEMKGHLTCAIDVLSNPDESDVEKRLDAVRTLNSLVAALSVNDGDHYDVIDTAFEEIRE	not soluble
MASFPFLMTPETMNKLVTPNSASISSSSSSPSTSTSFSIDTLLSNPLAGIPQLHNFQDPFGAVGAAAAASALPWQFHPANYPFFSMLCGPLMPPFMAPYHHQHYASRRKRRHRTIFSEEQLNILETTFSTTHYPDATTREELAVQCSLKEERVEVWFKNRRAKERKQKKDDSRTSKHSGDDSECDESDEDTRKVKRIKRENSSGKETSSPESKASLKTSHSENLVLEPC	not soluble
MGYRIEFDPRAEKELEKLDREVARRILRFLRERVATLEDPRSLGEPLRGPELGRFWKYRVGDYRLICHIQDREATVLVLRVGHARDVYR	soluble
MGSDKIHHHHHHMNSIPHLILGDIITPTQAGQSLLIKKGYVLINGDSIIEVGEQAHFNKEISYTVSNYPDHLILPGLIDTHSHLSQYAICGAGDLPLMDWLNTLVFPAETAFSSNLQRCQRHAELYMHACLGSGTTTINTMVTSSRQATEIVCDVAARLGIRAFIGLVLMDRNAPDNLLVDCAQAFKDLTVLKDRYHGKNNIHITVSPRFAVTCSAAMLRQAGEFARANKLILHTHLDKDEGFDELIQSLFSTAHDYFDVFESTQCIADKTVFAHGTLLSLHEMKRMGDYAKQVGISHCPSSNFSFAMGMAPVSFFKGLGIEVGLGSDSGGGDSLSLFDEMRSASFTNKALWRLDKKTALIDAKTWLYHATLGGAKLLGLEKQIGSIEAGKKADLIILDDRNNYPLAELSSLSQELALDELQYRLARVIARSCENKLVAVYIDGKKVYQ	not soluble
GSPQAHPVPKDARITHSSGQSFEQMRQECLQRGTLFEDADFPASNSSLFYSERPQIPFVWKRPGEIVKNPEFILGGATRTDICQGELGDCWLLAAIASLTLNQKALARVIPQDQSFGPGYAGIFHFQFWQHSEWLDVVIDDRLPTFRDRLVFLHSADHNEFWSALLEKAYAKLNGSYEALKGGSAIEAMEDFTGGVAETFQTKEAPENFYEILEKALKRGSLLGCFIDTRSAAESEARTPFGLIKGHAYSVTGIDQVSFRGQRIELIRIRNPWGQVEWNGSWSDSSPEWRSVGPAEQKRLCHTALDDGEFWMAFKDFKAHFDKVEICNLTPDA	soluble
MSLMKFIIKLFPEITIKSQSVRLRFIKILTGNIRNVLKHYDETLAVVRHWDNIEVRAKDENQRLAIRDALTRIPGIHHILEVEDVPFTDMHDIFEKALVQYRDQLEGKTFCVRVKRRGKHDFSSIDVERYVGGGLNQHIESARVKLTNPDVTVHLEVEDDRLLLIKGRYEGIGGFPIGTQEDVLSLISGGFDSGVSSYMLMRRGCRVHYCFFNLGGAAHEIGVRQVAHYLWNRFGSSHRVRFVAINFEPVVGEILEKIDDGQMGVILKRMMVRAASKVAERYGVQALVTGEALGQVSSQTLTNLRLIDNVSDTLILRPLISYDKEHIINLARQIGTEDFARTMPEYCGVISKSPTVKAVKSKIEAEEEKFDFSILDKVVEEANNVDIREIAQQTEQEVVEVETVNGFGPNDVILDIRSIDEQEDKPLKVEGIDVVSLPFYKLSTKFGDLDQNKTWLLWCERGVMSRLQALYLREQGFNNVKVYRPEGGSHHHHHH	soluble
